Results taken from patent US20250320281A1.

Legend:
Experiment in all cases: cell-based or functional assay
[1] = molecular target: HIV-1 Env of isolate MGRM-AE-007 (subtype AE) (HIV-1)
[2] = molecular target: HIV-1 Env of isolate MG RM-D-001 (HIV-1)
[3] = molecular target: aMLV envelope (negative control pseudovirus)
[4] = molecular target: HIV-1 93IN905 Env (pseudovirus, clade C) (HIV-1)
[5] = molecular target: HIV-1 envelope glycoprotein (Env) of isolate MGRM-C-009 (HIV-1)
[6] = molecular target: HIV-1 Env of isolate APV-13 (HIV-1)
[7] = molecular target: HIV-1 envelope glycoprotein (Env) of isolate MGRM-C-010 (HIV-1)
[8] = molecular target: HIV-1 Env of isolate MG RM-D-020 (HIV-1)
[9] = molecular target: HIV-1 Env of isolate VLGCB3 (subtype B) (HIV-1)
[10] = molecular target: HIV-1 Env of isolate MGRM-Chronic-B-011 (subtype B) (HIV-1)
[11] = molecular target: HIV-1 Env of isolate QH0692.42 (subtype B) (HIV-1)
[12] = molecular target: HIV-1 Env of isolate 92UG005 (clade D), on pseudovirus (HIV-1)
[13] = molecular target: HIV-1 Env of pseudovirus isolate MGRM-G-025 (HIV-1)
[14] = molecular target: HIV-1 Env of isolate APV-6 (HIV-1)
[15] = molecular target: HIV-1 envelope glycoprotein (Env) of isolate MGRM-C-015 (HIV-1)
[16] = molecular target: HIV-1 envelope glycoprotein (Env) of isolate MGRM-C-014 (HIV-1)
[17] = molecular target: HIV-1 Env of isolate SC422661.8 (subtype B) (HIV-1)
[18] = molecular target: HIV-1 Env of isolate MGRM-Chronic-B-004 (subtype B) (HIV-1)
[19] = molecular target: HIV-1 Env of isolate 94UG103 (HIV-1)
[20] = molecular target: HIV-1 Env of isolate MGRM-AG-006 (subtype AG) (HIV-1)
[21] = molecular target: HIV-1 Env of isolate MGRM-D-001 (clade D pseudovirus) (HIV-1)
[22] = molecular target: HIV-1 Env of pseudovirus MGRM-F1-006 (HIV-1)
[23] = molecular target: HIV-1 Env of pseudovirus MGRM-AG-006 (clade CRF_AG) (HIV-1)
[24] = molecular target: HIV-1 Env of isolate MGRM-Chronic-B-003, clade B, on pseudovirus (HIV-1)
[25] = molecular target: HIV-1 Env of isolate 92UG046 (clade D pseudovirus) (HIV-1)
[26] = molecular target: HIV-1 envelope glycoprotein (Env) of isolate MGRM-A-012, clade A (HIV-1)
[27] = molecular target: HIV-1 Env of pseudovirus MGRM-AG-013 (clade CRF_AG) (HIV-1)
[28] = molecular target: HIV-1 Env of isolate MGRM-D-005 (clade D pseudovirus) (HIV-1)
[29] = molecular target: HIV-1 93UG077 envelope glycoprotein (Env) on pseudovirus (HIV-1)
[30] = molecular target: HIV-1 Env of isolate MGRM-D-016 (clade D pseudovirus) (HIV-1)
[31] = molecular target: HIV-1 Env of pseudovirus MGRM-F1-015 (HIV-1)
[32] = molecular target: HIV-1 Env of isolate MGRM-D-028 (clade D pseudovirus) (HIV-1)
[33] = molecular target: HIV-1 envelope glycoprotein (Env) of isolate MGRM-A-009, clade A (HIV-1)
[34] = molecular target: HIV-1 Env of pseudovirus MGRM-G-017 (HIV-1, clade G isolate MGRM-G-017)
[35] = molecular target: HIV-1 Env of isolate 93TH305, clade B, on pseudovirus (HIV-1)

5329_C19 (PGT-136) (antibody), sequence (VH): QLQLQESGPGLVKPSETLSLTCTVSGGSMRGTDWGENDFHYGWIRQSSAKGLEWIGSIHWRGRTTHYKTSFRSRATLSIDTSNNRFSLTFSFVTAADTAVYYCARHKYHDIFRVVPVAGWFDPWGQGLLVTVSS
5329_C19 (PGT-136) (antibody), sequence (VL): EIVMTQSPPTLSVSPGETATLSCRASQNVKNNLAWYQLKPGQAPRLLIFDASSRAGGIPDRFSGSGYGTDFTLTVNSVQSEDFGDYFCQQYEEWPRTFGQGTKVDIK
1443_C16 (PG16) (TCN-116) (antibody), sequence (VH): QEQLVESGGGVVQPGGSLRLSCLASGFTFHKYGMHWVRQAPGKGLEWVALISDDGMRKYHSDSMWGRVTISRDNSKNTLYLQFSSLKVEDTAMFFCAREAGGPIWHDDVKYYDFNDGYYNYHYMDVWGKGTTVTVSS
1443_C16 (PG16) (TCN-116) (antibody), sequence (VL): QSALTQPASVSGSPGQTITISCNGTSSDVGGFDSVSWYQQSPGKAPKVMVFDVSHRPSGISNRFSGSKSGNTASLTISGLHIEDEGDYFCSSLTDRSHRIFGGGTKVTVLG

Row | Substance | IC50 (µg/mL), pseudovirus neutralization [1] | IC50 (µg/mL), pseudovirus neutralization [2] | IC50 neutralization [4] | IC50 (µg/mL), pseudovirus neutralization [5] | neutralization IC50 [6] | IC50 (µg/ml), pseudovirus neutralization [21] | IC50 (µg/ml), pseudovirus neutralization [22] | IC50 [23] | IC50 (µg/ml), pseudovirus neutralization [24] | IC50 (µg/ml), pseudovirus neutralization [25] | IC50 (µg/ml), pseudovirus neutralization [26] | IC50 [27] | IC50 (µg/ml), pseudovirus neutralization [28] | IC50, pseudovirus neutralization [29] | IC50 (µg/ml), pseudovirus neutralization [30] | IC50 (µg/ml), pseudovirus neutralization [31] | IC50 (µg/ml), pseudovirus neutralization [32] | IC50 (µg/ml), pseudovirus neutralization [33] | IC50 (µg/ml), pseudovirus neutralization [34] | IC50 (µg/ml), pseudovirus neutralization [35] | further results
1 | 5329_C19 (PGT-136) (antibody) | > 50 µg/mL | > 50 µg/mL | 0.0135 µg/mL | > 50 µg/mL | > 50 µg/mL |  |  |  |  |  |  |  |  |  |  |  |  |  |  |  | IC50 (neutralizing activity, pseudovirus) [3]: > 10 µg/mL; IC50 (µg/mL), pseudovirus neutralization [7]: > 50 µg/mL; IC50 (µg/mL), pseudovirus neutralization [8]: > 50 µg/mL; IC50 neutralization [9]: > 50 µg/mL; IC50 neutralization [10]: > 50 µg/mL; IC50 neutralization [11]: > 50 µg/mL; IC50, pseudovirus neutralization [12]: > 10 µg/mL; IC50 (µg/mL), pseudovirus neutralization [13]: > 50 µg/mL; neutralization IC50 [14]: > 50 µg/mL; IC50 (µg/mL), pseudovirus neutralization [15]: 11.1 µg/mL; IC50 (µg/mL), pseudovirus neutralization [16]: > 50 µg/mL; IC50 neutralization [17]: > 50 µg/mL; IC50 neutralization [18]: > 50 µg/mL; IC50 [19]: > 50 µg/mL; IC50 (µg/mL), pseudovirus neutralization [20]: 29.1 µg/mL
2 | b12 (antibody) |  |  |  |  |  | > 50 µg/mL | > 50 µg/mL | > 50 µg/mL | > 50 µg/mL | 0.07 µg/mL | > 50 µg/mL | > 50 µg/mL | > 50 µg/mL | 41.1 µg/mL | 1.12 µg/mL | > 50 µg/mL | 0.78 µg/mL | 4.34 µg/mL | > 50 µg/mL | 4.17 µg/mL | 
3 | 2F5 (antibody) |  |  |  |  |  | 0.63 µg/mL | 1.1 µg/mL | 0.85 µg/mL | 1 µg/mL | > 50 µg/mL | 2.36 µg/mL | 1.79 µg/mL | > 50 µg/mL | 4.45 µg/mL | 9.85 µg/mL | 0.1 µg/mL | > 50 µg/mL | 9.4 µg/mL | 0.6 µg/mL | 7.61 µg/mL | 
4 | 5343_B08 (PGT-135) (antibody) | > 50 µg/mL | > 50 µg/mL | 0.0183 µg/mL | > 50 µg/mL | 0.716 µg/mL |  |  |  |  |  |  |  |  |  |  |  |  |  |  |  | IC50 (neutralizing activity, pseudovirus) [3]: > 10 µg/mL; IC50 (µg/mL), pseudovirus neutralization [7]: > 50 µg/mL; IC50 (µg/mL), pseudovirus neutralization [8]: > 50 µg/mL; IC50 neutralization [9]: 0.142 µg/mL; IC50 neutralization [10]: > 50 µg/mL; IC50 neutralization [11]: > 50 µg/mL; IC50, pseudovirus neutralization [12]: > 10 µg/mL; IC50 (µg/mL), pseudovirus neutralization [13]: 0.592 µg/mL; neutralization IC50 [14]: > 50 µg/mL; IC50 (µg/mL), pseudovirus neutralization [15]: 0.104 µg/mL; IC50 (µg/mL), pseudovirus neutralization [16]: > 50 µg/mL; IC50 neutralization [17]: 21.8 µg/mL; IC50 neutralization [18]: > 50 µg/mL; IC50 [19]: > 50 µg/mL; IC50 (µg/mL), pseudovirus neutralization [20]: 17.9 µg/mL
5 | 4E10 (antibody) |  |  |  |  |  | 1.84 µg/mL | 1.01 µg/mL | 1.76 µg/mL | 3.5 µg/mL | 12.2 µg/mL | 4.27 µg/mL | 2.61 µg/mL | 35.2 µg/mL | 11.2 µg/mL | 15.4 µg/mL | 0.53 µg/mL | 1.28 µg/mL | 12 µg/mL | 1.14 µg/mL | 12.3 µg/mL | 
6 | 1495_C14 (PGC14) (antibody) |  |  |  |  |  | > 50 µg/mL | > 50 µg/mL | > 50 µg/mL | > 50 µg/mL | > 50 µg/mL | > 50 µg/mL | > 50 µg/mL | > 50 µg/mL | > 50 µg/mL | > 50 µg/mL | > 50 µg/mL | > 50 µg/mL | > 50 µg/mL | > 50 µg/mL | 6 µg/mL | 
7 | 2G12 (antibody) |  |  |  |  |  | > 50 µg/mL | > 50 µg/mL | 3.92 µg/mL | 0.06 µg/mL | > 50 µg/mL | > 50 µg/mL | 0.95 µg/mL | 25.7 µg/mL | > 50 µg/mL | > 50 µg/mL | > 50 µg/mL | > 50 µg/mL | 7.47 µg/mL | > 50 µg/mL | 0.55 µg/mL | 
8 | 5147_N06 (PGT-130) (antibody) | 0.083 µg/mL | > 50 µg/mL | 0.0182 µg/mL | > 50 µg/mL | 0.052 µg/mL |  |  |  |  |  |  |  |  |  |  |  |  |  |  |  | IC50 (µg/mL), pseudovirus neutralization [7]: > 50 µg/mL; IC50 (µg/mL), pseudovirus neutralization [8]: 24.7 µg/mL; IC50 neutralization [9]: 4.6 µg/mL; IC50 neutralization [10]: 0.153 µg/mL; IC50 neutralization [11]: > 50 µg/mL; IC50, pseudovirus neutralization [12]: 0.474 µg/mL; IC50 (µg/mL), pseudovirus neutralization [13]: 8.45 µg/mL; neutralization IC50 [14]: > 50 µg/mL; IC50 (µg/mL), pseudovirus neutralization [15]: 0.344 µg/mL; IC50 (µg/mL), pseudovirus neutralization [16]: > 50 µg/mL; IC50 neutralization [17]: > 50 µg/mL; IC50 neutralization [18]: 0.01 µg/mL; IC50 [19]: 1.4 µg/mL; IC50 (µg/mL), pseudovirus neutralization [20]: 0.009 µg/mL
9 | 1443_C16 (PG16) (TCN-116) (antibody) |  |  |  |  |  | > 50 µg/mL | 0.27 µg/mL | > 50 µg/mL | 0.19 µg/mL | 1.42 µg/mL | 20.7 µg/mL | 0.31 µg/mL | 19.7 µg/mL | > 50 µg/mL | 0.02 µg/mL | > 50 µg/mL | > 50 µg/mL | 0.01 µg/mL | 0.02 µg/mL | 19.3 µg/mL | 
